# Laboratory results published in article doi:10.1101/2021.10.18.464838 (2021).
# Where no end group is shown, it is not given here.
# Tests used:
# [1] = target: T1, CHIP (recombinant human) (human, UniProt Q9UNE7 1-303); assay: FP
# T1 chain: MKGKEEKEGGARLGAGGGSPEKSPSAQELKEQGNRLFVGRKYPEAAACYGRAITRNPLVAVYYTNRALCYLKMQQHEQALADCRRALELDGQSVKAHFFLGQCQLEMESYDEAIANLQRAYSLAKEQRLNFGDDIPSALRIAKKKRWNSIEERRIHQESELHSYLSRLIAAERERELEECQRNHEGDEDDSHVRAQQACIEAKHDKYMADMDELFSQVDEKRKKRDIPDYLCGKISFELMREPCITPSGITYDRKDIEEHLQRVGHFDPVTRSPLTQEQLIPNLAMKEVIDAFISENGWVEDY
# [2] = target: DnaJB4 (recombinant, human, full length, wild type) (human, UniProt Q9UDY4 1-337); assay: FP
# Sequence of DnaJB4 (recombinant, human, full length, wild type) (Q9UDY4 whole entry): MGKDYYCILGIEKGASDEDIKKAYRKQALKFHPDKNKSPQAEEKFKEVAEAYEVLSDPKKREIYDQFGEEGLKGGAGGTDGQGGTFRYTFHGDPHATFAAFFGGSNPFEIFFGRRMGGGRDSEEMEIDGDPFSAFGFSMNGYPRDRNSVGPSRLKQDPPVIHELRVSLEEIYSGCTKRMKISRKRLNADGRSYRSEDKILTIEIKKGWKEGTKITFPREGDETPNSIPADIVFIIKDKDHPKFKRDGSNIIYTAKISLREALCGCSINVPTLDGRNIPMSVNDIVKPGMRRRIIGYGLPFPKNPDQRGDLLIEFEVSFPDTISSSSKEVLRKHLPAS
binder,measurement,setting,value
GSGPEIEEVD-OH (not fully specified (N-terminus); printed as FITC-Ahx-GSGPEIEEVD) [Hsp72 phosphomimetic T636E tracer FITC-Ahx-GSGPEIEEVD],Kd,[1],5.04 µM
same,Kd,[2],1.68 µM
